One assay deals with T1, human glypican-1 (GPC-1) (human, UniProt P35052 24-530).
T1 construct: whole, on cells; also called GPC-1 antigen
T1 sequence (looked up): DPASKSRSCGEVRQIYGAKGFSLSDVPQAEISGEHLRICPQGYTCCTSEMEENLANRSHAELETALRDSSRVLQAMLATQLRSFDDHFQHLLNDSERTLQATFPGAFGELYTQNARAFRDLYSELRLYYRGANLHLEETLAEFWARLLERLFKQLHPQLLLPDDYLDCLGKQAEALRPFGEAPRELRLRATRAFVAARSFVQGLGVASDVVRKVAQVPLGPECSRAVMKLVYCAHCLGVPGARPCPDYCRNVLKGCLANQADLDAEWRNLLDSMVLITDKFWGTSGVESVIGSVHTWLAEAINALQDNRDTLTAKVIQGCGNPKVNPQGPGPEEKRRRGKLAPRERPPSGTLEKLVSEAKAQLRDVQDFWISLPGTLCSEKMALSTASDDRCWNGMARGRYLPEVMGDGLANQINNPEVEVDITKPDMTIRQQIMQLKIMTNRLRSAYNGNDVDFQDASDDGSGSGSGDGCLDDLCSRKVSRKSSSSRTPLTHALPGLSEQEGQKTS
The experiment in a line: statement opening Example 7; no assay named.

The target of the next assay is T2, mouse GPC-1 (mouse, UniProt Q9QZF2 24-529).
T2 construct: whole, on cells; also called mouse glypican-1
T2 sequence (looked up): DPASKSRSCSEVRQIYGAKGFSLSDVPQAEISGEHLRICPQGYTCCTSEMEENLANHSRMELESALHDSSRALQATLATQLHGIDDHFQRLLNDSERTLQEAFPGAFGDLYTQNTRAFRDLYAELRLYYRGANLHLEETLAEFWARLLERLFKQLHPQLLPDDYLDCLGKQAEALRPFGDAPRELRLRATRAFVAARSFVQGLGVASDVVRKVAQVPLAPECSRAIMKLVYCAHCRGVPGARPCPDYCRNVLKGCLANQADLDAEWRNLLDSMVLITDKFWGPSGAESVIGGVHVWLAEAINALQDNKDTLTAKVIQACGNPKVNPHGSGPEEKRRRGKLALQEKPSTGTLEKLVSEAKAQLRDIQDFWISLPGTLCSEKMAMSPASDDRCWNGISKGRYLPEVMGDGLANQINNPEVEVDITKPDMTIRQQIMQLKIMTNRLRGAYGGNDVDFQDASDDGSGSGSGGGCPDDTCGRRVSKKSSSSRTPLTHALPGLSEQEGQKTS
The experiment in a line: statement opening Example 7; no assay named.

B1: anti-GPC-1-CAR (Type A or Type B not stated) (other)
VH: AVTLDESGGGLQTPGRALSLVCKASGFTFSRYAMYWVRQAPGKGLEFVAGIGNTGRYTGYGSAVKGRATISRDSGQSTVRLQLNNLRAEDTGNYYCAKSVSPYCCDAADIDAWGHGTEVIVSS
VL: ASTQPSSVSANPGETVKITCSGGSSGYAYGWYQQKSPGSAPVTLLYSNNNRPSDIPSRFSGSKSGSTATLTITGVQAEDEAVYFCGSVDSSSYAGIFGAGTTLTVL
notes: VH and VL in truth stand in one CAR chain with a (Gly4Ser)3 linker, a human CD28-derived part and the human CD3zeta intracellular domain; also called GPC-1 CAR gene of the invention; CAR of the anti-GPC-1-CAR-T cells
B1: the binding result with human glypican-1 (GPC-1) and in the assay with mouse GPC-1 was “binds” each time.

Source of the values: US20220356265A1 (KEIO UNIVERSITY, published 2022).
